Reference: US20250257148A1 (CROSSLINK THERAPEUTICS, published 2025)

B1: Construct 156: Hisx8-anti-BCMA VHH-(G4S)2-anti-CD3 VHH-(G4S)2-CH1-CH2-TAP1 NBD (Cys-less; modified D-helix; D668N) (other)
chain: MHHHHHHHHEVQLVESGGGLVQAGGSLRLSCAASGRTFTMGWFRQAPGKEREFVAAISLSPTLAYYAESVKGRFTISRDNAKNTVVLQMNSLKPEDTALYYCAADRKSVMSIRPDYWGQGTQVTVSSGGGGSGGGGSQVQLVESGGGLVQPGGSLRLSCAASGSIFSANTMGWYRQAPGKQRELVAGMNTSGSTVYGDSVKGRFTISRDNAKNIAYLQMNSLIPEDTAVYYCTLVQRGPNYWGQGTQVTVSSGGGGSGGGGSETEFFQQNQTGGGGSGLQTVRSFGGGGGSGGSGLLTPLHLEGLVQFQDVSFAYPNRPDVLVLQGLTFTLRPGEVTALVGPNGSGKSTVAALLQNLYQPTGGQLLLDGKPLPQYEHRYLHRQVAAVGQEPQVFGRSLQENIAYGLTQKPTMEEITAAAVKSGAHSFISGLPQGYDTEVDEAGSQLSGGQRQAVALARALIRKPSVLILDNATSALDAGNQLRVQRLLYESPERYSRSVLLITQHLSLVEQADHILFLEGGAIREGGTHQQLMEKKGSYWAMVQAPADAPEGGGGS
notes: Single polypeptide expressed in E. coli; Here CH1-CH2 means Coupling Helix 1 and Coupling Helix 2 (the CAP)
B2: Construct 159: CH1-CH2-TAP1 NBD (Cys-less; modified D-helix; D668N)-(G4S)2-anti-CD3 VHH-(G4S)2-anti-BCMA VHH-Hisx8 (other)
chain: METEFFQQNQTGGGGSGLQTVRSFGGGGGSGGSGLLTPLHLEGLVQFQDVSFAYPNRPDVLVLQGLTFTLRPGEVTALVGPNGSGKSTVAALLQNLYQPTGGQLLLDGKPLPQYEHRYLHRQVAAVGQEPQVFGRSLQENIAYGLTQKPTMEEITAAAVKSGAHSFISGLPQGYDTEVDEAGSQLSGGQRQAVALARALIRKPSVLILDNATSALDAGNQLRVQRLLYESPERYSRSVLLITQHLSLVEQADHILFLEGGAIREGGTHQQLMEKKGSYWAMVQAPADAPEGGGGSGGGGSGGGGSQVQLVESGGGLVQPGGSLRLSCAASGSIFSANTMGWYRQAPGKQRELVAGMNTSGSTVYGDSVKGRFTISRDNAKNIAYLQMNSLIPEDTAVYYCTLVQRGPNYWGQGTQVTVSSGGGGSGGGGSEVQLVESGGGLVQAGGSLRLSCAASGRTFTMGWFRQAPGKEREFVAAISLSPTLAYYAESVKGRFTISRDNAKNTVVLQMNSLKPEDTALYYCAADRKSVMSIRPDYWGQGTQVTVSSHHHHHHHH
notes: Single polypeptide expressed in E. coli
B3: Construct 157: Hisx8-anti-BCMA VHH-(G4S)2-CH1-CH2-TAP1 NBD (Cys-less; modified D-helix; D668N)-(G4S)2-anti-CD3 VHH (other)
chain: MHHHHHHHHEVQLVESGGGLVQAGGSLRLSCAASGRTFTMGWFRQAPGKEREFVAAISLSPTLAYYAESVKGRFTISRDNAKNTVVLQMNSLKPEDTALYYCAADRKSVMSIRPDYWGQGTQVTVSSGGGGSGGGGSETEFFQQNQTGGGGSGLQTVRSFGGGGGSGGSGLLTPLHLEGLVQFQDVSFAYPNRPDVLVLQGLTFTLRPGEVTALVGPNGSGKSTVAALLQNLYQPTGGQLLLDGKPLPQYEHRYLHRQVAAVGQEPQVFGRSLQENIAYGLTQKPTMEEITAAAVKSGAHSFISGLPQGYDTEVDEAGSQLSGGQRQAVALARALIRKPSVLILDNATSALDAGNQLRVQRLLYESPERYSRSVLLITQHLSLVEQADHILFLEGGAIREGGTHQQLMEKKGSYWAMVQAPADAPEGGGGSGGGGSGGGGSQVQLVESGGGLVQPGGSLRLSCAASGSIFSANTMGWYRQAPGKQRELVAGMNTSGSTVYGDSVKGRFTISRDNAKNIAYLQMNSLIPEDTAVYYCTLVQRGPNYWGQGTQVTVSS
notes: as for B2

Experiments:
[1] = target: the molecule itself; assay: size exclusion chromatography, 1 mM ATP against 1 mM ADP; ATP mediated shift read as homodimerization
Method: (§1) To evaluate the behavior of the constructs in the presence of ATP and ADP samples of the purified protein (1 mg each) were buffer-exchanged on PD-10 columns (Cytiva 17085101) according to manufacturer instructions. For the buffer exchange PD-10 desalting columns were equilibrated with target buffer (20 mM Tris-Cl pH 8.0, 50 mM NaCl, 5 mM MgCl₂, 10% glycerol) containing either 1 mM ATP or 1 mM ADP. One milligram (100 μl of 10 mg/ml stock) of protein was added to each column along with 2.4 ml of target buffer, the column was centrifuged at 1000×g for 2 minutes in a 50-ml conical tube, and the eluate was collected. Buffer-exchanged proteins were then concentrated to 0.5 ml (˜60 μM) and loaded onto a Superdex S200 Increase column (Cytiva) equilibrated in the appropriate buffer containing ATP or ADP and eluted at 0.5 ml/min.

[2] = target: the molecule itself; assay: size exclusion chromatography, 1 mM ATP against 1 mM ADP; homodimerization
Method: as §1

| Protein | binding result [1] | binding result [2] |
| --- | --- | --- |
| B1 | binds | – |
| B2 | binds | – |
| B3 | – | binds |
